Patent US20250333496A1 (Novo Nordisk, published 2025)
Substitutions are numbered along the chain they refer to. “And” between values parts separate entries of the source, which are not always exact repeats. Identical values can stand only once.

B1: Polypeptide_51 (VHH)
VHH: EVQLVESGGGWVQPGGSLKLSCTTSGRRFSEYAVGWFRQAPGKEREFVADIGEQAENTWYAESVLGRFTISRDDAKNTVYLEMDGLKPEDTAVYYCAADKYGVGGNAQGYYDSWGQGTQVTVSS
B2: Polypeptide_49 (VHH)
VHH: B1 VHH with E1Q, W11L
B3: Polypeptide_53 (VHH)
VHH: B1 VHH with W11L, E31S
B4: Polypeptide_56 (VHH)
VHH: B1 VHH with W11L, E62H
B5: Polypeptide_50 (VHH)
VHH: B1 VHH with V2L, W11L
B6: Polypeptide_52 (VHH)
VHH: B1 VHH with W11L, R28T
B7: Polypeptide_54 (VHH)
VHH: B1 VHH with W11L, Q54N
B8: Polypeptide_55 (VHH)
VHH: B1 VHH with W11L, E56D
B9: Polypeptide_22 (VHH)
VHH: B1 VHH with W11L, A40G, E82Q, G85S
notes: VHH_1.2 with C-terminal His tag extension E1; also called [VHH_1.2]-E1
B10: Polypeptide_46 (VHH)
VHH: B1 VHH with E1Q, V2L, K19Q, K43Q, E62H, D74E, E82Q, G85S
B11: Compound 3 (VHH)
VHH: B1 VHH with E1Q, V2L, K19Q, K43Q, E62H, D74E, E82Q, G85S
modifications: Chem. 24 (C16 diacid substituent) on Cys in position 4 and on Cys in position 6 of the extension (SEQ ID NO: 72); found mass includes position 1 Gln to pyroGlu formation
B12: Compound 6 (VHH)
VHH: B1 VHH with W11L, K19Q, A40G, E62H, E82Q, G85S
modifications: Chem. 24 (C16 diacid substituent) on Cys in position 4 and on Cys in position 6 of the extension (SEQ ID NO: 72)
notes: Polypeptide derivative; extension E2 at the C-terminus of the VHH; also called VHH_1.3-E2 with 2x Chem. 24
B13: Compound 4 (VHH)
VHH: B1 VHH with K19Q, K43Q, E62H, D74E, E82Q, G85S
modifications: Chem. 24 (C16 diacid substituent) on Cys in position 4 and on Cys in position 6 of the extension (SEQ ID NO: 72)
notes: Polypeptide derivative; extension E2 at the C-terminus of the VHH; also called VHH_1.1-E2 with 2x Chem. 24
B14: Compound 9 (VHH)
VHH: B1 VHH with W11L
modifications: Chem. 24 (C16 diacid substituent) on Cys in position 4 and on Cys in position 6 of the extension (SEQ ID NO: 72)
notes: Polypeptide derivative; extension E2 at the C-terminus of the VHH; also called VHH_1.6-E2 with 2x Chem. 24; Chem. 31
B15: Compound 5 (VHH)
VHH: B1 VHH with W11L, A40G, E82Q, G85S
modifications: Chem. 24 (C16 diacid substituent) on Cys in position 4 and on Cys in position 6 of the extension (SEQ ID NO: 72)
notes: Polypeptide derivative; extension E2 at the C-terminus of the VHH; also called VHH_1.2-E2 with 2x Chem. 24
B16: Polypeptide_47 (VHH)
VHH: B1 VHH with E1Q, V2L, E62H, D74E, E82Q, D84N, G85S
notes: VHH_1.15 with C-terminal His tag extension E1; also called [VHH_1.15]-E1
B17: Compound 7 (VHH)
VHH: B1 VHH with W11L, K19Q, R28K, S30D, Q54N, E62H, E82Q, G85S
modifications: Chem. 24 (C16 diacid substituent) on Cys in position 4 and on Cys in position 6 of the extension (SEQ ID NO: 72)
notes: Polypeptide derivative; extension E2 at the C-terminus of the VHH; also called VHH_1.4-E2 with 2x Chem. 24
B18: Polypeptide_31 (VHH)
VHH: B1 VHH with W11L, K19Q, R28K, S30D, A40G, K43Q, Q54N
notes: VHH_1.7 with C-terminal His tag extension E1; also called [VHH_1.7]-E1
B19: Compound 8 (VHH)
VHH: B1 VHH with W11L, K19Q, R28K, S30D, A40G, Q54N, E82Q, G85S
modifications: Chem. 24 (C16 diacid substituent) on Cys in position 4 and on Cys in position 6 of the extension (SEQ ID NO: 72)
notes: Polypeptide derivative; extension E2 at the C-terminus of the VHH; also called VHH_1.5-E2 with 2x Chem. 24
B20: Compound 10 (VHH)
VHH: B1 VHH with W11L, K19Q, R28K, S30D, A40G, K43Q, Q54N
modifications: Chem. 24 (C16 diacid substituent) on Cys in position 4 and on Cys in position 6 of the extension (SEQ ID NO: 72)
notes: Polypeptide derivative; extension E2 at the C-terminus of the VHH; also called VHH_1.7-E2 with 2x Chem. 24
B21: Polypeptide_28 (VHH)
VHH: B1 VHH with W11L, K19Q, R28K, S30D, A40G, Q54N, E82Q, G85S
notes: VHH_1.5 with C-terminal His tag extension E1; also called [VHH_1.5]-E1
B22: Polypeptide_24 (VHH)
VHH: B1 VHH with W11L, K19Q, A40G, E62H, E82Q, G85S
notes: VHH_1.3 with C-terminal His tag extension E1; also called [VHH_1.3]-E1
B23: Polypeptide_27 (VHH)
VHH: B1 VHH with W11L, K19Q, R28K, S30D, Q54N, E62H, E82Q, G85S
notes: VHH_1.4 with C-terminal His tag extension E1; also called [VHH_1.4]-E1
B24: Compound 12 (VHH)
VHH: EVQLVESGGGLVQPGGSLQLSCAASGFTFSNYWMYWVRQAPGQGLEWVSGINTGGSTPDYADSVKGRFAISRDNAKNTLYLQMDSLRPEDTAVYYCAADTPRVFRLDHYSPLGQGTQVTVSS
modifications: Chem. 24 (C16 diacid substituent) on Cys in position 4 and on Cys in position 6 of the extension (SEQ ID NO: 72)
notes: Polypeptide derivative; extension E2 at the C-terminus of the VHH; also called VHH_1.17-E2 with 2x Chem. 24
B25: Compound 2 (VHH)
VHH: EVQLVESGGGLVQAGGSLQLSCTASGGTFSEYAMAWFRQAPGQEREFVTDIGESGGTWYADSVKGRFTISRDNAKNTVYLQMDSLRPEDTAVYYCAADSYGVGGGAERYYDSWGQGTQVTVSS
modifications: Chem. 24 (C16 diacid substituent) on Cys in position 4 and on Cys in position 6 of the extension (SEQ ID NO: 72)
notes: Polypeptide derivative; extension E2 at the C-terminus of the VHH; also called VHH_1.13-E2 with 2x Chem. 24
B26: Compound 1 (VHH)
VHH: QLQLVESGGGWVQPGGSLQLSCTTSGRTFSSYAVGWFRQAPGQEREFVADIGENADNTWYAHSVKGRFTISRDNAKNTVYLQMDSLKPEDTAVYYCAADSYGVGGGAQGYYDSWGQGTQVTVSS
modifications: Chem. 24 (C16 diacid substituent) on Cys in position 4 and on Cys in position 6 of the extension (SEQ ID NO: 72)
notes: Polypeptide derivative; extension E2 at the C-terminus of the VHH; also called VHH_1.12-E2 with 2x Chem. 24

Target: T1, human IL-6 (mature hIL-6) (human, UniProt P05231 30-212)
Experiment: cell-based or functional assay

T1 sequence (P05231 30-212): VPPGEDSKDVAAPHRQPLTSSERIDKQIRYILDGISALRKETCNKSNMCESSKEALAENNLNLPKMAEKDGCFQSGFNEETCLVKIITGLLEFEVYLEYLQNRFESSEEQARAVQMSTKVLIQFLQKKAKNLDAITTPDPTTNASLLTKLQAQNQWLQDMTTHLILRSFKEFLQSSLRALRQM

IC50 (nM), STAT3-luc reporter gene assay [nM] | Relative IC50 to Reference Polypeptide_29 [fold] | Binder
0.053 | 1.5 | B1
0.051 | 1.5 | B2
0.05 | 1.5 | B3
0.168 | 4.9 | B4
0.049 | 1.4 | B5
0.055 | 1.6 | B6
0.15 | 4.4 | B7
0.278 | 8.1 | B8

Target: T1, human IL-6 (mature hIL-6)
Experiment: cell-based or functional assay
Remark: another data set of the same source

IC 50 (nM), reporter gene assay, 0% HSA [nM] | IC 50 (nM), reporter gene assay, 1% HSA [nM] | Binder
0.029 | – | B9
0.021 | – | B10
0.029 | 0.029 | B11
0.018 | 0.016 | B12
0.024 | 0.015 | B13
0.022 | 0.014 | B14
0.019 | 0.012 | B15
0.017 | 0.01 | B16
0.025 | 0.019 | B17
0.023 | – | B18
0.02 | 0.017 | B19
0.022 | 0.016 | B20
0.027 | – | B21
0.019 | – | B22
0.026 | – | B23
– | 0.021 | B24
0.065 | 0.041 | B25
0.029 | 0.06 | B26

Target: T2, recombinant human HPC4-tagged IL-6 (human, UniProt P05231 30-212)
T2 construct: captured on an anti-HPC4 antibody in SPR; also called HPC4-human IL6
Experiment: SPR, HPC4-IL-6 captured on anti-HPC4 antibody, VHH injected, 25 C, 1:1 model
Procedure: Binding of purified anti-IL-6 VHHs to recombinant human HPC4-tagged IL-6 (SEQ ID NO: 98) was probed by Surface Plasmon Resonance (SPR).
IL-6 was captured at a flow rate of 10 μL/min for 30 seconds.
Subsequently, concentration series of VHH polypeptides according to Table 33 were injected at a flow rate of 50 μL/min for 200 seconds to allow for binding to […] followed by 600 seconds running buffer (10 mM HEPES, 150 mM NaCl, 5 mM CaCl₂, 0.05% (v/v) Surfactant P20, 1 mg/mL bovine serum albumin, pH 7.4) injection allowing dissociation from IL-6. The running buffer was also used for dilution of anti-IL-6 VHHs and IL-6. Regeneration of the chip was achieved using a regeneration buffer consisting of 50 mM EDTA in running buffer without CaCl₂, 30 seconds contact time, and a 30 μL/min flow rate applied twice to the surface. The binding data were collected at 25° C. at either a Biacore instrument (Cytiva AB, Uppsala) or a Bruker SPR32 (Bruker Daltonics). Data were analysed according to a 1:1 model using either BiaEvaluation or Biacore Insight Evaluation (Cytiva AB, Uppsala) or Bruker Analyser (Bruker Daltonics).

T2 sequence (P05231 other isoform, or with tags, fused parts or gaps limits assumed): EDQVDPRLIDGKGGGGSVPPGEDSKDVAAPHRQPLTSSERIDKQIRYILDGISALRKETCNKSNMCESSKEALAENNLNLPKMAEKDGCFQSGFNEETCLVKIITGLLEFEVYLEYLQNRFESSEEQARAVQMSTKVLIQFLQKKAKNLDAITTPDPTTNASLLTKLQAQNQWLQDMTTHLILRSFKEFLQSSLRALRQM

Kd | koff | kon | Binder
0.00721 nM | 0.000147 s⁻¹ | 2.03e+07 M⁻¹ s⁻¹ | B9
0.0161 nM and 0.0214 nM | 7.82e-05 s⁻¹ and 9.95e-05 s⁻¹ | 4.94e+06 M⁻¹ s⁻¹ and 4.65e+06 M⁻¹ s⁻¹ | B12
0.0142 nM and 0.0191 nM | 6.98e-05 s⁻¹ and 9.08e-05 s⁻¹ | 4.9e+06 M⁻¹ s⁻¹ and 4.75e+06 M⁻¹ s⁻¹ | B13
0.0187 nM and 0.0218 nM and 0.0223 nM | 8.71e-05 s⁻¹ and 0.000105 s⁻¹ and 0.000101 s⁻¹ | 4.66e+06 M⁻¹ s⁻¹ and 4.82e+06 M⁻¹ s⁻¹ and 4.53e+06 M⁻¹ s⁻¹ | B14
0.0159 nM and 0.0214 nM | 7.82e-05 s⁻¹ and 9.95e-05 s⁻¹ | 4.94e+06 M⁻¹ s⁻¹ and 4.65e+06 M⁻¹ s⁻¹ | B15
– | 0.00014 s⁻¹ and 0.000208 s⁻¹ and 0.000137 s⁻¹ | 2.59e+07 M⁻¹ s⁻¹ and 1.05e+07 M⁻¹ s⁻¹ and 2.03e+07 M⁻¹ s⁻¹ | B16
0.0252 nM and 0.0338 nM | 0.000127 s⁻¹ and 0.000154 s⁻¹ | 5.05e+06 M⁻¹ s⁻¹ and 4.56e+06 M⁻¹ s⁻¹ | B17
0.0175 nM | 0.000154 s⁻¹ | 8.82e+06 M⁻¹ s⁻¹ | B18
0.0221 nM and 0.0296 nM | 0.000101 s⁻¹ and 0.000123 s⁻¹ | 4.58e+06 M⁻¹ s⁻¹ and 4.16e+06 M⁻¹ s⁻¹ | B19
0.0191 nM and 0.0208 nM | 0.000108 s⁻¹ and 9.33e-05 s⁻¹ | 4.48e+06 M⁻¹ s⁻¹ and 5.68e+06 M⁻¹ s⁻¹ | B20
0.00508 nM | 0.00013 s⁻¹ | 2.56e+07 M⁻¹ s⁻¹ | B21
0.00321 nM | 0.000132 s⁻¹ | 4.12e+07 M⁻¹ s⁻¹ | B22
0.00755 nM | 0.000163 s⁻¹ | 2.16e+07 M⁻¹ s⁻¹ | B23
0.0543 nM | 0.000216 s⁻¹ | 7.36e+06 M⁻¹ s⁻¹ | B24
0.0523 nM | 0.000348 s⁻¹ | 6.66e+06 M⁻¹ s⁻¹ | B25
0.0637 nM and 0.0454 nM | 0.000364 s⁻¹ and 0.000371 s⁻¹ | 5.67e+06 M⁻¹ s⁻¹ and 8.18e+06 M⁻¹ s⁻¹ | B26
